Measured values from patent US20050090448A1 (BAXTER INTERNATIONAL, published 2005).
Bridges are numbered along the chain shown (N, C = ends). Where no end group is shown, it is not given here.

Biological target: complement component C5 in pooled human plasma (human, UniProt P01031 19-1676)
Assay: cell-based or functional assay

complement component C5 in pooled human plasma, sequence (P01031 19-1676 limits assumed): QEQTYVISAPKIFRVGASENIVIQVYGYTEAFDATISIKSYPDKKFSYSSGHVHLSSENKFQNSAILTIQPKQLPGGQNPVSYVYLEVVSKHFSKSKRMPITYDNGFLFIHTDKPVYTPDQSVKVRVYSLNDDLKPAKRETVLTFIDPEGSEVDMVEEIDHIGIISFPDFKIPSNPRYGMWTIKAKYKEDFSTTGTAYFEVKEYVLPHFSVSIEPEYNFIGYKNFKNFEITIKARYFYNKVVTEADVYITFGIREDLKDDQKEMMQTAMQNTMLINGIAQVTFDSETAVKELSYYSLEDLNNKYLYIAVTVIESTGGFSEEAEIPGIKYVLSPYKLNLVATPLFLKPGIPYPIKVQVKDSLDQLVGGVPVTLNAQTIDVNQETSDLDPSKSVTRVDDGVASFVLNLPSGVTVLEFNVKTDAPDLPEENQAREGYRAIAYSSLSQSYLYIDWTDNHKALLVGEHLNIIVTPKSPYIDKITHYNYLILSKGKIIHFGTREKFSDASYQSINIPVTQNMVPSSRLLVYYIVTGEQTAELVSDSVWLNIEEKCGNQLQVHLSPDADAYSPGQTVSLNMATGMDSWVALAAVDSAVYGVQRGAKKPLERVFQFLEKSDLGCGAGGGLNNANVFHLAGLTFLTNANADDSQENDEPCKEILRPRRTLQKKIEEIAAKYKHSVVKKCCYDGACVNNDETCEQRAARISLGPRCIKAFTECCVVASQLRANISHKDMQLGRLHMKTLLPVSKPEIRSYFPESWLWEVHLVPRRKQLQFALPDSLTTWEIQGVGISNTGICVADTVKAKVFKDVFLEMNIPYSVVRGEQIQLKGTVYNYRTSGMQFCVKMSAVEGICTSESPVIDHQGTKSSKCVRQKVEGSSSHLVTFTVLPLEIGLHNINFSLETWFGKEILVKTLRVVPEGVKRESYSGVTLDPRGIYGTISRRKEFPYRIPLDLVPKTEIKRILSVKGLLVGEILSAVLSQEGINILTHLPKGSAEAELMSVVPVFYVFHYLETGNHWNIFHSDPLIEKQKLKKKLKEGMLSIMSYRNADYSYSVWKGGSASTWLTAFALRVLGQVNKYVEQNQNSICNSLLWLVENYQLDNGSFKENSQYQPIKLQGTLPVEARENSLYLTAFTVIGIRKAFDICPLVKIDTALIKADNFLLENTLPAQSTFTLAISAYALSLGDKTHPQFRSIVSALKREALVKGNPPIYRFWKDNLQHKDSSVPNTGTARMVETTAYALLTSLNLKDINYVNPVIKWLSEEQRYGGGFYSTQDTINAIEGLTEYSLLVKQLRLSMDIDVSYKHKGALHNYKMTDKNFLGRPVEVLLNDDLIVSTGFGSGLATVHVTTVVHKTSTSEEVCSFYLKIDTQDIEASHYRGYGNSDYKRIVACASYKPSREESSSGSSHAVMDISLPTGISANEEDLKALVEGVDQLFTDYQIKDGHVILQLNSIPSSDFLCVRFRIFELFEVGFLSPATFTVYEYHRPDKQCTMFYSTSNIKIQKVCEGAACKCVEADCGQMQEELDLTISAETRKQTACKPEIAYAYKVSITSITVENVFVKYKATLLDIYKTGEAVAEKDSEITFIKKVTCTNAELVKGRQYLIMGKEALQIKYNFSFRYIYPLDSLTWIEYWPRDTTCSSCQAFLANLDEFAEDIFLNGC

Binder	IC50 of inhibition of classical pathway hemolysis (antibody sensitized sheep erythrocytes, human plasma)
TQDNRWEFPLRV [Peptide 13 (SEQ ID NO 13)]	29.2 µM
SFNDLLWRWEWP [Peptide 7 (SEQ ID NO 7)]	48.9 µM
SDMCAAPWLCPV (disulfide 4-10 (inferred)) [Peptide 6 (SEQ ID NO 6)]	3 µM
DSTWTNFRWEFY [Peptide 8 (SEQ ID NO 8)]	5.8 µM
